Data as given in the supplement of paper PMC9112550, “Optimization of the antimicrobial peptide Bac7 by deep mutational scanning” (BMC Biology, 2022).

Tested on: Escherichia coli TOP10
Assay: shrunken log2 fold change of peptide-encoding DNA abundance (4.5 h post-induction vs induction); higher = less antimicrobial activity (less host growth inhibition)
Conditions: time post-induction: 4.5 h; library: site-saturation at positions 5, 18, 19, 20
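Also: peptides expressed intracellularly from a pBAD plasmid library in pooled LB shake-flask culture, induced with 0.3% L-arabinose, DNA abundance read by NGS, three biological replicates, DESeq2 with apeglm shrinkage.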

Sequence	shrunken log2 fold change
RRIRDRPPRLPRPRPRPFWQPRP	0.0546
RRIRARPPRLPRPRPRPYSDPRP	-0.262
RRIRTRPPRLPRPRPRPTNIPRP	-0.519
RRIRDRPPRLPRPRPRPLVWPRP	0.831
RRIRIRPPRLPRPRPRPHTLPRP	-0.436
RRIRDRPPRLPRPRPRPYMEPRP	-0.000464
RRIRARPPRLPRPRPRPLNWPRP	0.245
RRIRRRPPRLPRPRPRPDFYPRP	0.159
RRIRRRPPRLPRPRPRPRCEPRP	0.342
RRIRIRPPRLPRPRPRPVHMPRP	-0.315
RRIRHRPPRLPRPRPRPKQVPRP	-0.482
RRIRRRPPRLPRPRPRPLTIPRP	-0.133
RRIRDRPPRLPRPRPRPVGSPRP	0.519
RRIRPRPPRLPRPRPRPMYGPRP	-0.182
RRIRPRPPRLPRPRPRPHRLPRP	-0.0226
RRIRKRPPRLPRPRPRPVHGPRP	0.0412
RRIRQRPPRLPRPRPRPKTKPRP	-0.254
RRIRNRPPRLPRPRPRPTEFPRP	-0.043
RRIRFRPPRLPRPRPRPSIHPRP	-0.84
RRIRSRPPRLPRPRPRPKQDPRP	0.0172
RRIRFRPPRLPRPRPRPMIIPRP	-0.871
RRIRNRPPRLPRPRPRPFKPPRP	-0.239
RRIRDRPPRLPRPRPRPYTEPRP	-0.0346

Sequence	shrunken log2 fold change
RRIRRRPPRLPRPRPRPMFEPRP	0.266
RRIRHRPPRLPRPRPRPFPVPRP	0.0399
RRIRFRPPRLPRPRPRPEDEPRP	0.0432
RRIRGRPPRLPRPRPRPFDSPRP	0.0127
RRIRIRPPRLPRPRPRPWQVPRP	0.0844
RRIRIRPPRLPRPRPRPYQVPRP	-0.14
RRIRFRPPRLPRPRPRPHHEPRP	-0.515
RRIRIRPPRLPRPRPRPLSKPRP	-0.901
RRIRPRPPRLPRPRPRPVSPPRP	0.0647
RRIRTRPPRLPRPRPRPNERPRP	-0.0561
RRIRPRPPRLPRPRPRPQDPPRP	-0.135
RRIRCRPPRLPRPRPRPNSGPRP	-0.224
RRIRERPPRLPRPRPRPGWKPRP	0.015
RRIRGRPPRLPRPRPRPGMSPRP	0.417
RRIRMRPPRLPRPRPRPLLLPRP	-0.32
RRIRFRPPRLPRPRPRPLANPRP	0.0332
RRIRFRPPRLPRPRPRPCYHPRP	-0.859
RRIRCRPPRLPRPRPRPAHPPRP	0.125
RRIRDRPPRLPRPRPRPRTVPRP	-0.142
RRIRGRPPRLPRPRPRPGDWPRP	1.34
RRIRWRPPRLPRPRPRPRVCPRP	0.347
RRIRTRPPRLPRPRPRPSRWPRP	0.0135
RRIRKRPPRLPRPRPRPEHTPRP	-0.0305

Sequence	shrunken log2 fold change
RRIRRRPPRLPRPRPRPTWWPRP	0.57
RRIRARPPRLPRPRPRPASEPRP	0.285
RRIRERPPRLPRPRPRPERGPRP	0.119
RRIRERPPRLPRPRPRPKHGPRP	-0.017
RRIRCRPPRLPRPRPRPKGKPRP	0.328
RRIRRRPPRLPRPRPRPGGGPRP	0.841
RRIRVRPPRLPRPRPRPHMVPRP	-0.53
RRIRRRPPRLPRPRPRPDAQPRP	0.471
RRIRDRPPRLPRPRPRPQYKPRP	-0.121
RRIRQRPPRLPRPRPRPRVMPRP	-0.139
RRIRGRPPRLPRPRPRPLGCPRP	1.27
RRIRNRPPRLPRPRPRPVSCPRP	-0.129
RRIRGRPPRLPRPRPRPWCHPRP	-0.0582
RRIRVRPPRLPRPRPRPFDTPRP	-0.847
RRIRPRPPRLPRPRPRPGVKPRP	-0.0608
RRIRMRPPRLPRPRPRPTSKPRP	0.0886
RRIRQRPPRLPRPRPRPKECPRP	-0.0193
RRIRRRPPRLPRPRPRPLMIPRP	-0.258
RRIRSRPPRLPRPRPRPYLMPRP	-0.566
RRIRRRPPRLPRPRPRPRTEPRP	0.432
RRIRKRPPRLPRPRPRPNYHPRP	-0.331
RRIRCRPPRLPRPRPRPDTYPRP	-0.075
RRIRWRPPRLPRPRPRPTETPRP	0.0028

Sequence	shrunken log2 fold change
RRIRIRPPRLPRPRPRPLYPPRP	-0.561
RRIRYRPPRLPRPRPRPQTFPRP	-0.459
RRIRKRPPRLPRPRPRPPQNPRP	0.723
RRIRTRPPRLPRPRPRPEWTPRP	0.188
RRIRMRPPRLPRPRPRPTMGPRP	0.253
RRIRFRPPRLPRPRPRPGPSPRP	0.764
RRIRYRPPRLPRPRPRPHYVPRP	-0.208
RRIRIRPPRLPRPRPRPNPRPRP	-0.225
RRIRQRPPRLPRPRPRPNGAPRP	0.451
RRIRRRPPRLPRPRPRPTWLPRP	0.633
RRIRKRPPRLPRPRPRPKLEPRP	-0.0306
RRIRQRPPRLPRPRPRPDWAPRP	-0.012
RRIRYRPPRLPRPRPRPIRYPRP	-0.00146
RRIRARPPRLPRPRPRPWRDPRP	0.225
RRIRLRPPRLPRPRPRPDNPPRP	-0.231
RRIRQRPPRLPRPRPRPMAHPRP	0.00446
RRIRARPPRLPRPRPRPNWRPRP	0.883
RRIRCRPPRLPRPRPRPATMPRP	-0.0924
RRIRCRPPRLPRPRPRPIVCPRP	-0.272
RRIRLRPPRLPRPRPRPCSEPRP	0.0739
RRIRARPPRLPRPRPRPVSTPRP	-0.0272
RRIRRRPPRLPRPRPRPSWNPRP	-0.157
